In patent US20160326219A1, “OPTICALLY ACTIVATED RECEPTORS” (IST AUSTRIA (INSTITUTE OF SCIENCE AND TECHNOLOGY AUSTRIA), priority 2013, published 2016):

Legend:
[1] = tested on: M38K cells; assay: Stimulation and Western blot (M38K cells); assay type: cell-based, human; conditions: ~3 μW/mm^2
Text: (§1) M38K and SPC212, two malignant pleural mesothelioma cell lines, were maintained in RPMI1640 supplemented with 10% FBS. Telomerase-immortalized microvascular hBE cells were maintained in Clonetics EGM2 MV endothelial growth medium (Lonza, Wakersville, Md.) supplemented with 5% FBS. For retrovirus generation, Opto-mFGFR1 or mCherry as control was subcloned into pQCXIP (Clontech, Mountain View, Calif.) using EcoRI and NotI restriction enzymes. Viral particles were generated in HEK293 cells by co-transfection with the helper plasmids pVSV-G and p-gag-pol-gpt. Supernatants were used to transduce M38K, SPC212 or hBE cells grown to 50% confluency in 6-well plates. Cells were selected with 0.8 μg/ml puromycin for 10 d and transgene expression was verified by immunoblotting.
For immunoblotting, 5×10^5 cells were seeded in each well of 6-well plates. After 24 h, medium was replaced with reduced serum medium (M38K, SPC212). After additional 20 h, cells were transferred to the stimulation incubator and illuminated for 1, 5 or 15 min or shielded from light. Cells were then either immediately or after additional 5, 15 or 30 min in the dark washed and lysed in 50 μl lysis buffer per well on ice. Lysates were sonicated and centrifuged (12000 g, 5 min, 4° C.). […] Chemiluminescence was developed with WesternC reagent (Biorad, Hercules, Calif.) and signals recorded on X-ray film (GE Healthcare).

[2] = tested on: hBE cells; assay: In vitro angiogenesis (sprouting) assay (hBE cells); assay type: cell-based; conditions: hBE cell spheroids, FIGS. 7b and c
Method: For spheroid generation, hBE cells were suspended as hanging drops (450 cells in a 25 μl drop) in M199 medium (Sigma) supplemented with 10% FBS, L-glutamine, 2.2 g/I NaHCO3 and 20% methylcellulose (Sigma) over night in a standard tissue culture incubator. The following day, spheroids were washed in PBS containing 10% FBS, centrifuged, resuspended in Methocel/20% FBS, mixed (1:1) with neutralized rat-tail collagen and seeded into non-adhesive 24-well plates (Greiner Bio-one, Kremsmünster, Austria). After solidification of the collagen, VEGFA (30 ng/ml) or PD166866 (10 μM) were added. Plates were stimulated with light for 5 min every 20 min for 10 h or kept in the dark. After stimulation, 1 ml of 8% paraformaldehyde was added to each well and spheroids were photographed on the Nikon microscope. Cumulative sprout lengths per sphere from at least 8 spheroids per group were measured (ImageJ).

[3] = tested on: M38K cells; assay: Gene expression analysis, qPCR (M38K cells); assay type: cell-based, human
Method: 5×10^4 M38K cells were seeded into each well of a 6-well plates. After 24 h, cells were illuminated with a cycle of 5 min light/15 min dark for 48 h. Control cells were kept in the dark. Total RNA was extracted with TRIZOL (LifeTechnologies) and reverse transcribed with MMLV reverse transcriptase (Thermo Scientific). cDNAs corresponding to 50 ng RNA per sample were subjected to SYBR green qPCR on an Abi Prism 7500 Sequence Detection System using published primers (cf. Sakuma, 2012; #2508). GAPDH was used for normalization and fold change of expression level was calculated as 2-ddCt of illuminated versus non-illuminated cells.

[4] = tested on: M38K cells; assay: Cell proliferation, EdU incorporation (M38K cells); assay type: cell-based, human
Method: 2×10^4 M38K cells were seeded in each well of 96-well plates. After 24 h, cells were stimulated for 1 h or kept in the dark. FGF2 (Sigma, St. Louis, Mo.) was added as indicated. After 24 h, cells were incubated with 10 μM EdU for 2 h. Subsequently, newly synthesized DNA was stained with Click-iT EdU (Life Technologies) following the manufacturer's protocol and counterstained with 5 μg/ml Hoechst dye. Cells were photographed on a Nikon Ti300 inverted microscope. To determine the percentage of cells with newly synthesized DNA, Hoechst positive nuclei and EdU positive nuclei were counted.

[5] = tested on: M38K cells; assay: All optical evaluation of pharmacological compounds / cell morphology, M38K cells stably expressing Opto-mFGFR1; assay type: cell-based, human; conditions: M38K cells; blue light (Opto-mFGFR1) or added growth factor
Text: as §1
10^5 M38K cells were seeded in each well of 6-well plates. After 24 h, cells were stimulated for 1 h or kept in the dark. FGF2 (Sigma) or PD166866 (Pfizer Global Research and Development, New London, Conn.) were added as indicated. After additional 24 h, cells were photographed on the Nikon Ti300 microscope. For quantification of cell morphology, all cell perimeters in randomly selected sections of phase contrast images were traced and aspect ratios (defined as length of major axis divided by length of minor axis of a fitted ellipse) calculated with ImageJ software (National Institute of Health). Greater than 50 individual values contributed to each average.
For M38K cells, cell morphology was evaluated as described above but followed by automated image analysis. Phase contrast images (typically three images from two wells) were automatically analyzed. Images were converted to greyscale, resized and divided into segments for local threshold correction (threshold was defined as most probably intensity multiplied by a constant factor of 0.85; Igor Pro, Wavemetrics, Lake Oswego, Oreg.). Cells were identified and measured in FIJI/ImageJ (Max Planck Society/National Institutes of Health; size limit: 40 to 600 pixel̂2, circularity limit: 0.01 to 1.00). Occasionally, outliers were removed manually. Typically 200 to 1800 individual values contributed to the averages of FIG. 9. For HEK293 cells, MAPK pathway activation was measured using luciferase as described above.

B1: Opto-mFGFR1: chimeric receptor of mFGFR1 intracellular domain and VfAU1-LOV, SEQ ID NO: 58 (protein)
chain: MGSSKSKPKDPSQRLDMKSGTKKSDFHSQMAVHKLAKSIPLRRQVTVSADSSASMNSGVLLVRPSRLSSSGTPMLAGVSEYELPEDPRWELPRDRLVLGKPLGEGCFGQVVLAEAIGLDKDKPNRVTKVAVKMLKSDATEKDLSDLISEMEMMKMIGKHKNIINLLGACTQDGPLYVIVEYASKGNLREYLQARRPPGLEYCYNPSHNPEEQLSSKDLVSCAYQVARGMEYLASKKCIHRDLAARNVLVTEDNVMKIADFGLARDIHHIDYYKKTTNGRLPVKWMAPEALFDRIYTHQSDVWSFGVLLWEIFTLGGSPYPGVPVEELFKLLKEGHRMDKPSNCTNELYMMMRDCWHAVPSQRPTFKQLVEDLDRIVALTSNQEYLDLSIPLDQYSPSFPDTRSSTCSSGEDSVFSHEPLPEEPCLPRHPTQLANSGLKRRVETGPDYSLVKALQMAQQNFVITDASLPDNPIVYASRGFLTLTGYSLDQILGRNCRFLQGPETDPRAVDKIRNAITKGVDTSVCLLNYRQDGTTFWNLFFVAGLRDSKGNIVNYVGVQSKVSEDYAKLLVNEQNIEYKGVRTSNMLRRKTGGSGVDYPYDVPDYALD
modifications: mFGFR1-VfAU1-LOV
With B1 the “Phosphorylation upon blue light stimulation” value [1] was “rapid phosphorylation of Opto-mFGFR1 and ERK1/2”, the “Morphological alterations (sprouting) upon blue light illumination” value [2] was “induced morphological alterations” and the “Gene expression changes upon light stimulation” value [3] was “EMT-like gene expression changes”. For the same molecule, the “Proliferation (% of nuclei incorporating 5-ethynyl-2'-deoxyuridine) upon light stimulation” value [4] was “increased proliferation” and the Cell morphology response [5] was “EMT-like morphological alterations”.
